Measured values reported in the supplement of paper PMC10567573.
± gives the standard deviation.

Assay: protein stability index of a GFP-peptide fusion (GPS, HEK-293T) (PSI 1-6); higher = more stable
[1] = treatment: DMSO, c terminus: a fixed tail appended
[2] = treatment: MLN4924 1 uM, 8 h, c terminus: a fixed tail appended
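Also: 24-mer peptide tiles fused after GFP, lentivirally expressed, FACS-sorted into six equal bins by GFP/DsRed ratio, decoded by Illumina sequencing, PSI is the read-weighted mean bin number.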

Sequence | protein stability index [1] | protein stability index [2] | protein stability index (treatment: DMSO, c terminus: native) | protein stability index (treatment: MLN4924 1 uM, 8 h, c terminus: native)
NKCSGMRFPLQEENSVTHHEVKCQ [KMT5A] | 4.79 ± 0.42 | 4.61 ± 0.37 | – | –
NKGTRFSEAWEYFHLAPARAGHHP [ZBED2] | 2.64 ± 0.16 | 2.96 ± 0.22 | – | –
NKNEVFYQCPDQMARNPAAIDMFI [FBXO3] | 2.42 ± 0.17 | 2.65 ± 0.48 | – | –
NLIYRSTRHLKRLALMIQSSGNTV [TMEM192] | 2.93 ± 0.43 | 2.67 ± 0.42 | – | –
NLLFKPPVESHIQKNKKILKSAKD [KMT2E] | 3.61 ± 0.099 | 3.6 ± 0.38 | – | –
NPTRQDESIQRIAVHLCNALVCQV [ZER1] | 2.48 ± 0.74 | 2.27 ± 0.16 | – | –
NQKCQLRLLKTLETSRSHDLEAVV [ATP23] | 3.14 ± 0.12 | 3.3 ± 0.2 | – | –
NQLTHTDLKPENILFVNSEFETLY [CLK3] | 3.29 ± 0.35 | 3.27 ± 0.18 | – | –
NRFVQLSGRPHLPGKKKIRWDPVR [KLHDC10] | 2.5 ± 0.6 | 2.49 ± 0.52 | – | –
NRVSWWGSTLAMLQRLKEQQFVIA [ZBED1] | 2.41 ± 0.38 | 2.48 ± 1 | – | –
NSGLKPKDNEFTSKPWHWPINYQG [POMT2] | 2.99 ± 0.18 | 3.24 ± 0.27 | – | –
NSHQDFWTVWSGNRASLYSFPEPE [PRAME] | 2.49 ± 0.19 | 2.67 ± 0.38 | – | –
NSLITAPGEFSDASMSPDATKPSH [SMAD6] | 5.07 ± 0.21 | 5.23 ± 0.18 | – | –
NSTPLRAACFDGRLDIVKYLVENN [FEM1B] | 2.84 ± 0.19 | 3.01 ± 0.21 | – | –
NTEDWRPRPGTGQSRSFRILAHLT [PDLIM7] | 2.81 ± 0.33 | 2.9 ± 0.22 | – | –
NTKEKIAFFASHQCSNRIGSMKIK [FBXO34] | 2.79 ± 0.19 | 2.72 ± 0.46 | – | –
NVADTLVLADLHSAEQLKAQAIDF [SPOPL] | 3.46 ± 0.16 | 3.77 ± 0.57 | – | –
NVKMIVLICVIVFIIILFIVLFAT [VAMP8] | 2.27 ± 0.3 | 2.37 ± 0.27 | – | –
NVSLGPGVVVEDGVCIRRCTVLRD [GMPPB] | 3.54 ± 0.27 | 3.44 ± 0.29 | – | –
NVTRHQAECALNERGVEGDFLIRD [NCK2] | 4.35 ± 0.27 | 4.5 ± 0.31 | – | –
NWRYATGGWETVFRPVSETCTDRS [FUT8] | 2.21 ± 0.42 | 3 ± 0.67 | – | –
PAFPFIYTPTAEDSAQMQNGGPST [ANKRD40] | 4.55 ± 0.12 | 4.5 ± 0.23 | – | –

Sequence | protein stability index [1] | protein stability index [2] | protein stability index (treatment: DMSO, c terminus: native) | protein stability index (treatment: MLN4924 1 uM, 8 h, c terminus: native)
PALLFPATRGVPAKRLLDADDAAA [TRIB1] | 4.74 ± 0.23 | 4.67 ± 0.27 | – | –
PAPTTTTATREEASTSLPTKPTQG [CLPTM1] | 5.54 ± 0.19 | 5.57 ± 0.14 | – | –
PASGEVEASQLRRLNIKKDDEFFH [TMEM40] | 4.79 ± 0.1 | 4.78 ± 0.25 | – | –
PEEPSAEDSINNSLVQLQASHQQQ [MYBL2] | 5.62 ± 0.18 | 5.55 ± 0.16 | – | –
PEVECLKANTNEVLWAVVAAFTK [GOLPH3] | – | – | 2.17 ± 0.17 | 2.25 ± 0.31
PFDGLLEERALLLGRMGKHEQALF [VPS39] | 2.59 ± 0.28 | 2.67 ± 0.37 | – | –
PGAGDPAPGIGPPEPWPGGCTGDE [MYCL] | 5.38 ± 0.057 | 5.16 ± 0.43 | – | –
PGVHRRYSALREESAKDWETSPLP [PPFIA4] | 4.04 ± 0.31 | 4.43 ± 0.27 | – | –
PIVNISEVLGPLCLMLLMGTVHCQ [PHTF1] | 3.34 ± 0.24 | 3.17 ± 0.22 | – | –
PKELSSFSFSMKGHEKTAKSKTRS [DLC1] | 4.73 ± 0.31 | 4.78 ± 0.21 | – | –
PLEAMYMQCPVIAVNSGGPLESID [ALG2] | 3.61 ± 0.33 | 3.86 ± 0.22 | – | –
PLGVLQAIAMYFLPPSPRFLVMKG [SLC2A12] | 2.64 ± 0.98 | 2.88 ± 1.3 | – | –
PLTSHILRAFVNSQIQGHKEMSKV [SNX8] | 2.3 ± 0.36 | 2.21 ± 0.3 | – | –
PMPWLVLSEIFPGGIRGRAMALTS [SLC2A12] | 2.5 ± 0.16 | 2.33 ± 0.38 | – | –
PNGSAAEPPTEAASREENQAGPEA [PALM] | 5.56 ± 0.35 | 5.4 ± 0.25 | – | –
PNIRNMAPNSLSAPTMLHNSSGDF [TRAF3IP2] | 4.16 ± 0.34 | 4.43 ± 0.19 | – | –
PNNSCYSAGIAKLEEGDELQLAIP [TNFSF13B] | 4.55 ± 0.12 | 4.59 ± 0.29 | – | –
PPLPTYHVLLEGEGLGQSLGNFKD [TRIM29] | 3.8 ± 0.085 | 3.7 ± 0.14 | – | –
PPLTRQIAVKTLGIGKNVICDRTA [GFOD1] | 3.71 ± 0.22 | 3.92 ± 0.082 | – | –
PPNQQMSPSPMSHGHYSMHCLHSA [DLX1] | 3.1 ± 0.31 | 3.13 ± 0.15 | – | –
PPSMVAAGSVVAAVQGLNLRSPNN [CCND1] | 4.31 ± 0.17 | 4.3 ± 0.26 | – | –
PPSRAPTAAPPPPPPSRPSVAVPP [WASL] | 4.77 ± 0.21 | 4.86 ± 0.21 | – | –

Sequence | protein stability index [1] | protein stability index [2] | protein stability index (treatment: DMSO, c terminus: native) | protein stability index (treatment: MLN4924 1 uM, 8 h, c terminus: native)
PPTSPEPPRSSPRQTPAPGPAREK [CEBPD] | – | 5.62 ± 0.089 | – | –
PQIPVDRGSETTYESSADIAGDEG [TAF7L] | 5.46 ± 0.22 | 5.48 ± 0.32 | – | –
PQKSYFIRLYGLQAGRLLWEQELY [WAS] | 2.28 ± 0.32 | 2.15 ± 0.19 | – | –
PRLIAKVEGKGNGIKTVIVNMVDV [EIF5] | 2.34 ± 0.41 | 2.37 ± 0.34 | – | –
PSHYDVQDRFRIELSEEGAEGRVV [MOSPD3] | 4.63 ± 0.11 | 4.79 ± 0.33 | – | –
PSSLGPLLPLQREPLYNWQATKAS [BTBD1] | 3.36 ± 0.21 | 3.5 ± 0.14 | – | –
PSVMDPGAFETVLASAYTGRLSMA [ZBTB22] | 2.3 ± 0.38 | 2.3 ± 0.17 | – | –
PTPSTDAEYPANGSGADRIYDLNI [NCK2] | 4.69 ± 0.21 | 4.71 ± 0.19 | – | –
PTTEPETEPEDDRGPVVPKHSTFG [GNAS] | 5.4 ± 0.18 | 5.27 ± 0.42 | – | –
PTVTIEGFLQALSLAVDKQFEERK [TRIP13] | 2.29 ± 0.61 | 2.13 ± 0.44 | – | –
PVGSCCSSPAGLSREYKLVMLGAG [RIT1] | 2.54 ± 0.44 | 2.24 ± 0.35 | – | –
PVQPGMLIDVCKYLGSLQYRVWKK [TRIM35] | 2 ± 0.2 | 2.17 ± 0.29 | – | –
PVRRIDGLTDVSQIITVTVQTGLD [IQUB] | 2.47 ± 0.45 | 2.45 ± 0.52 | – | –
PVVSAVWGHCEIRMRYLNGLDPEP [SPSB1] | 2.14 ± 0.35 | 1.98 ± 0.33 | – | –
QAHELAYDPNYMSPFAQFACDNGL [PPTC7] | 3.32 ± 0.12 | 3.13 ± 0.41 | – | –
QALSGTPKKGPAPSLSPGSSCVKY [TSPAN10] | 4.16 ± 0.059 | 4.37 ± 0.22 | – | –
QAPKSKSGSRPRKPPPRKHTRSWA [LRRC59] | 4.05 ± 0.21 | 4.15 ± 0.29 | – | –
QAQIELRLLELMNQHDTEMKYYIV [DYRK1B] | 2.24 ± 0.23 | 2.49 ± 0.47 | – | –
QAVVLCSKKTFQITKQGDGVDFLS [USP39] | 2.57 ± 0.18 | 2.77 ± 0.38 | – | –
QCFFNGVFLGNKRSLSERTVDKCF [SPATS1] | 2.13 ± 0.25 | 2.34 ± 0.24 | – | –
QCIECGKSFNRHCNLIRHQKIHTV [ZSCAN9] | 3.37 ± 0.3 | 3.36 ± 0.38 | – | –
